PMC10046861, “Linker Length Drives Heterogeneity of Multivalent Complexes of Hub Protein LC8 and Transcription Factor ASCIZ” (Biomolecules, 2023)
Positions count from the first letter of the chain named. Several values for one entry are separate records, joined by “and”; a condition that tells them apart may be missing. Equal values may be shown once.

B1: Drosophila LC8 (natural protein)
chain: MSDRKAVIKNADMSEEMQQDAVDCATQALEKYNIEKDIAAYIKKEFDKKYNPTWHCIVGRNFGSYVTHETRHFIYFYLGQVAILLFKSG
notes: LC8 hub protein (dynein light chain LC8) of Drosophila; folds as a homodimer; tag cleaved by TEV protease; also called LC8 dimer; source: E. coli Rosetta (DE3), purified (TALON, anion exchange, Superdex 75 gel filtration)
B2: QT3 (QT2–4 single-site variant, only motif QT3 intact) (domain or fragment)
chain: EVLAPLLRDIEAAAPDTRGDIGTMTDDFPEEQEPVAVGSHFHAYSETEPMFDLQTSAHMYAAACDDLFEEL
modifications: Anchor positions are not printed. They were deduced from 8-residue motifs ending in the anchor, linkers of 3 and 30 residues, and 9 residues after QT4; the wild-type letters must match the entry …
B3: Drosophila ASCIZ QT2–4 (residues 271–341) (domain or fragment, UniProt Q9VZU1 271-341, looked up)
chain: B2 chain with A12T, A13Q, A14T, A61T, A62Q, A63T
notes: also called wildtype QT2–4; intact QT2–4 construct; source: E. coli Rosetta (DE3), purified under denaturing conditions (TALON, anion exchange, gel filtration)

Experiments:
[1] = target: QT3,4 (QT2–4 double-site variant, motifs QT3 and QT4 intact) (Drosophila) (UniProt Q9VZU1); assay: ITC; LC8 (400–500 µM) in the syringe titrated into QT variant (20–50 µM) in the cell; 25 °C; 50 mM sodium phosphate, 50 mM NaCl, 1 mM sodium azide, 5 mM β-mercaptoethanol, pH 7.5; single set of sites fit, for double-site variants also sequential binding sites (SBS) and two sets of sites (TSS) fits
[2] = target: QT2,3 (QT2–4 double-site variant, motifs QT2 and QT3 intact) (Drosophila) (UniProt Q9VZU1); assay: as above
[3] = target: QT2,4 (QT2–4 double-site variant, motifs QT2 and QT4 intact) (Drosophila) (UniProt Q9VZU1); assay: native MS; native ESI-MS; LC8 mixed with double-site QT variant at 2:1 LC8:QT, overnight at 4 °C; 25 µM total protein and dilutions to 500 nM; 200 mM ammonium acetate, pH 7.4; conditions: scale: LC8 chains per variant chain
[4] = target: QT3,4 (QT2–4 double-site variant, motifs QT3 and QT4 intact) (Drosophila) (UniProt Q9VZU1); assay: as above; conditions: scale: LC8 chains per variant chain
[5] = target: QT2,3 (QT2–4 double-site variant, motifs QT2 and QT3 intact) (Drosophila) (UniProt Q9VZU1); assay: as above; conditions: scale: LC8 chains per variant chain
[6] = target: QT2,4 (QT2–4 double-site variant, motifs QT2 and QT4 intact) (Drosophila) (UniProt Q9VZU1); assay: ITC; LC8 (400–500 µM) in the syringe titrated into QT variant (20–50 µM) in the cell; 25 °C; 50 mM sodium phosphate, 50 mM NaCl, 1 mM sodium azide, 5 mM β-mercaptoethanol, pH 7.5; single set of sites fit, for double-site variants also sequential binding sites (SBS) and two sets of sites (TSS) fits
[7] = target: QT2 (QT2–4 single-site variant, only motif QT2 intact) (Drosophila) (UniProt Q9VZU1); assay: as above
[8] = target: QT4 (QT2–4 single-site variant, only motif QT4 intact) (Drosophila) (UniProt Q9VZU1); assay: as above
[9] = target: the molecule itself; assay: native MS; native ESI-MS of the individual proteins (25 µM; dilution series); 200 mM ammonium acetate, pH 7.4
[10] = target: B3; assay: SEC-MALS; 90 µM QT2–4 or QT4–6 mixed with 300 µM LC8 (1:3.3); Superdex200 10/300 GL, room temperature; 50 mM sodium phosphate, 0.4 M NaCl, 1 mM NaN3, 5 mM β-mercaptoethanol, pH 7.5; conditions: both partners purified
Drosophila LC8 [11] = target: B1; assay: ITC; LC8 (400–500 µM) in the syringe titrated into QT variant (20–50 µM) in the cell; 25 °C; 50 mM sodium phosphate, 50 mM NaCl, 1 mM sodium azide, 5 mM β-mercaptoethanol, pH 7.5; single set of sites fit, for double-site variants also sequential binding sites (SBS) and two sets of sites (TSS) fits; conditions: both partners purified
Drosophila LC8 [12] = target: B1; assay: negative-stain electron microscopy; images of a QT2–4/LC8 mixture; strings of LC8 dimers counted in 50 images; conditions: both partners purified

Molecule: Drosophila LC8 (from UniProt Q24117 1-89) (natural protein)
- N of site QT3, two sets of sites fit [1]: 0.2
- fold stabilisation of the stronger site (QT2) against its single-site variant, two sets of sites fit [2]: 7 fold
- fold stabilisation of the weaker site (QT3) against its single-site variant, two sets of sites fit [2]: 2 fold
- stoichiometry N [3]: 2 (2×) and 4 and 3
- stoichiometry N [4]: 2 (2×) and 4 and 3
- stoichiometry N [5]: 2 (2×) and 4 and 3

Molecule: B1
- N of site QT4, two sets of sites fit [6]: 0.6
- fold increase in affinity of site QT4 against the single-site variant QT4, sequential binding sites fit [6]: 5 fold
- Kd [7]: 9.3 µM
- dH [7]: -10.7 kcal/mol
- Kd of the second (weaker) site, QT3, sequential binding sites fit [1]: 40 µM
- Kd of the second (weaker) site, QT3, two sets of sites fit [1]: 25.7 µM
- Kd [8]: 15 µM
- dH [8]: -16.1 kcal/mol
- stoichiometry N [9]: 2
- stoichiometry N [10]: 1 LC8 chains per QT2–4 chain (2 QT2–4 chains, 2 LC8 chains)

Molecule: B2
- Kd (Drosophila LC8 [11]): 36 µM

Molecule: B3
- binding result (Drosophila LC8 [12]): binds
